# B1: Beta-lactoglobulin-1 wild type, P02758 (protein)
# chain: MKCLLLALGLALMCGIQATNIPQTMQDLDLQEVAGKWHSVAMAASDISLLDSESAPLRVYIEKLRPTPEDNLEIILREGENKGCAEKKIFAEKTESPAEFKINYLDEDTVFALDTDYKNYLFLCMKNAATPGQSLVCQYLARTQMVDEEIMEKFRRALQPLPGRVQIVPDLTRMAERCRI
# Conditions: Equus caballus, Thermal, CD, Potassium citrate 10 mM, KCl 0.1 mM, reversible: yes, whole UniProt chain shown
protein,measurement,setting,value
B1,Tm,pH 3.65,47.5 °C
same,unfolding enthalpy (van 't Hoff),pH 3.65,37.8 kcal/mol
same,Tm,pH 3.71,49.4 °C
same,unfolding enthalpy (van 't Hoff),pH 3.71,44.2 kcal/mol
same,Tm,pH 4,58.3 °C
same,unfolding enthalpy (van 't Hoff),pH 4,51.5 kcal/mol
same,Tm,pH 4.2,59.7 °C
same,unfolding enthalpy (van 't Hoff),pH 4.2,57.1 kcal/mol
same,Tm,pH 4.22,61.4 °C
same,unfolding enthalpy (van 't Hoff),pH 4.22,57.8 kcal/mol
same,Tm,pH 4.23,57.3 °C
same,unfolding enthalpy (van 't Hoff),pH 4.23,52.7 kcal/mol
